Reference: article PMC10786891, “Massively parallel profiling of RNA-targeting CRISPR-Cas13d”

T1: EsCas13d, nuclease-dead (Eubacterium siraeum, UniProt B0MS50, R295A;H300A;R849A;H854A)
T1 sequence: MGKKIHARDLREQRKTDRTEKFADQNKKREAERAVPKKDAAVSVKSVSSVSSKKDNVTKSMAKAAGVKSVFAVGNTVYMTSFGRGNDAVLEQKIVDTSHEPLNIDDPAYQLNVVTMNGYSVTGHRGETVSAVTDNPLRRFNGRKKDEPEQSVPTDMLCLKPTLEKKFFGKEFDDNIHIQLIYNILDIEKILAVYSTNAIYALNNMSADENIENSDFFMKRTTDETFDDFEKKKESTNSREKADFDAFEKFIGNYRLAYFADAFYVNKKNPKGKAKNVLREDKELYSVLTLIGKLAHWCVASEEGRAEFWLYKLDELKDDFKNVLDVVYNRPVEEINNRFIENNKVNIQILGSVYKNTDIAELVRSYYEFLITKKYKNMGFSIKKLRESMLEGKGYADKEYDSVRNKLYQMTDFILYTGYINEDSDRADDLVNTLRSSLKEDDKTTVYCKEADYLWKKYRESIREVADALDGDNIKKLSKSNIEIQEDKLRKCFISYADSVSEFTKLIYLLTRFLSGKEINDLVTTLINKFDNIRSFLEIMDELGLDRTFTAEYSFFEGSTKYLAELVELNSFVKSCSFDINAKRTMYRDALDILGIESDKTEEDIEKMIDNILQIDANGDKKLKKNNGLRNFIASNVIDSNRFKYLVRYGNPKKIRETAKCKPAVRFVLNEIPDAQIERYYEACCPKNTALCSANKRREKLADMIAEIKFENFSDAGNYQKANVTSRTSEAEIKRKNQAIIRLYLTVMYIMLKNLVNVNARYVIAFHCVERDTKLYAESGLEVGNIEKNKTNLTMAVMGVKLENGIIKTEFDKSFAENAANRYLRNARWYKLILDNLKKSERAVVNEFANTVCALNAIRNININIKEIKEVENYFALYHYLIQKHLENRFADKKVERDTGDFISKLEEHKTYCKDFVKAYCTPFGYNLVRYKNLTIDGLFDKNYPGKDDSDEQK


Target: T1, EsCas13d, nuclease-dead
Assay: crRNA (strand 1, pre-loaded); Mg2+; 40 mM Tris-HCl pH 7.5, 150 mM NaCl, 6 mM MgCl2, 1 mM DTT, 0.1% Tween-20, 0.2 mg/ml BSA; 25 C; 10 min per concentration, then washed
Details: tags: His6-TwinStrep-SUMO cleaved; N-terminal SNAP kept (SNAP-Surface 488); label: 3' end held by stalled T7 RNA polymerase

Row | Binder | Kd
1 | target 1 C4A,A18U (mixed) RNA 1: CACCCGUGCAAAAAUGCAGGGGUCUAAAACUGAGCGGAUAACCUCUCUAUGG RNA 2: GGGAAUGGAUCCACAUCUACGAAUUCGUACCAUUGAGAGGUUAUCCGAUCACCGAGAUCGGAAGAGCACACGU | 21.1 ± 2.4 nM
2 | target 1 U11A,A14G (mixed) RNA 1: CACCCGUGCAAAAAUGCAGGGGUCUAAAACUGAGCGGAUAACCUCUCUAUGG RNA 2: GGGAAUGGAUCCACAUCUACGAAUUCGUACCAUAGAGGGGAUAUCCGCUCACCGAGAUCGGAAGAGCACACGU | 43 ± 4 nM
3 | target 1 C2G,G17C (mixed) RNA 1: CACCCGUGCAAAAAUGCAGGGGUCUAAAACUGAGCGGAUAACCUCUCUAUGG RNA 2: GGGAAUGGAUCCACAUCUACGAAUUCGUACCAUACAGAGGUUAUCCGCUGACCGAGAUCGGAAGAGCACACGU | 50 ± 6 nM
4 | target 2 MT 5'PFS UAG 3'PFS AAA (mixed) RNA 1: CACCCGUGCAAAAUUGCAGGGGUCUAAAACCUUCUCCAAAUUGUUUCAUCCU RNA 2: GGGAAUGGAUCCACAUCUACGAAUUCUAGAGGAUGAAACAAUUUGGAGAAGAAAAGAUCGGAAGAGCACACGU | 2.2 ± 0.4 nM
5 | target 2 MT 5'PFS CUC 3'PFS UUA (mixed) RNA 1: CACCCGUGCAAAAUUGCAGGGGUCUAAAACCUUCUCCAAAUUGUUUCAUCCU RNA 2: GGGAAUGGAUCCACAUCUACGAAUUCCUCAGGAUGAAACAAUUUGGAGAAGUUAAGAUCGGAAGAGCACACGU | 4.9 ± 0.7 nM
6 | target 2 MT 5'PFS UAG 3'PFS CCU (mixed) RNA 1: CACCCGUGCAAAAUUGCAGGGGUCUAAAACCUUCUCCAAAUUGUUUCAUCCU RNA 2: GGGAAUGGAUCCACAUCUACGAAUUCUAGAGGAUGAAACAAUUUGGAGAAGCCUAGAUCGGAAGAGCACACGU | 54 ± 17 nM
7 | target 2 MT 5'PFS AUU 3'PFS CUG (mixed) RNA 1: CACCCGUGCAAAAUUGCAGGGGUCUAAAACCUUCUCCAAAUUGUUUCAUCCU RNA 2: GGGAAUGGAUCCACAUCUACGAAUUCAUUAGGAUGAAACAAUUUGGAGAAGCUGAGAUCGGAAGAGCACACGU | 9.7 ± 1.3 nM
8 | target 2 MT 5'PFS UAG 3'PFS CCG (mixed) RNA 1: CACCCGUGCAAAAUUGCAGGGGUCUAAAACCUUCUCCAAAUUGUUUCAUCCU RNA 2: GGGAAUGGAUCCACAUCUACGAAUUCUAGAGGAUGAAACAAUUUGGAGAAGCCGAGAUCGGAAGAGCACACGU | 2.56 ± 0.17 nM
9 | target 2 MT 5'PFS CUC 3'PFS UUC (mixed) RNA 1: CACCCGUGCAAAAUUGCAGGGGUCUAAAACCUUCUCCAAAUUGUUUCAUCCU RNA 2: GGGAAUGGAUCCACAUCUACGAAUUCCUCAGGAUGAAACAAUUUGGAGAAGUUCAGAUCGGAAGAGCACACGU | 6.5 ± 1.6 nM
10 | target 2 MT 5'PFS UUA 3'PFS UGU (mixed) RNA 1: CACCCGUGCAAAAUUGCAGGGGUCUAAAACCUUCUCCAAAUUGUUUCAUCCU RNA 2: GGGAAUGGAUCCACAUCUACGAAUUCUUAAGGAUGAAACAAUUUGGAGAAGUGUAGAUCGGAAGAGCACACGU | 23.1 ± 3 nM
11 | target 2 MT 5'PFS AAG 3'PFS ACA (mixed) RNA 1: CACCCGUGCAAAAUUGCAGGGGUCUAAAACCUUCUCCAAAUUGUUUCAUCCU RNA 2: GGGAAUGGAUCCACAUCUACGAAUUCAAGAGGAUGAAACAAUUUGGAGAAGACAAGAUCGGAAGAGCACACGU | 5 ± 0.9 nM
12 | target 2 MT 5'PFS AAG 3'PFS ACC (mixed) RNA 1: CACCCGUGCAAAAUUGCAGGGGUCUAAAACCUUCUCCAAAUUGUUUCAUCCU RNA 2: GGGAAUGGAUCCACAUCUACGAAUUCAAGAGGAUGAAACAAUUUGGAGAAGACCAGAUCGGAAGAGCACACGU | ~27 nM
13 | target 2 MT 5'PFS UUA 3'PFS UGC (mixed) RNA 1: CACCCGUGCAAAAUUGCAGGGGUCUAAAACCUUCUCCAAAUUGUUUCAUCCU RNA 2: GGGAAUGGAUCCACAUCUACGAAUUCUUAAGGAUGAAACAAUUUGGAGAAGUGCAGAUCGGAAGAGCACACGU | 33 ± 9 nM
14 | target 2 MT 5'PFS ACA 3'PFS AUC (mixed) RNA 1: CACCCGUGCAAAAUUGCAGGGGUCUAAAACCUUCUCCAAAUUGUUUCAUCCU RNA 2: GGGAAUGGAUCCACAUCUACGAAUUCACAAGGAUGAAACAAUUUGGAGAAGAUCAGAUCGGAAGAGCACACGU | 6.2 ± 1.3 nM
15 | target 2 MT 5'PFS CUC 3'PFS UUU (mixed) RNA 1: CACCCGUGCAAAAUUGCAGGGGUCUAAAACCUUCUCCAAAUUGUUUCAUCCU RNA 2: GGGAAUGGAUCCACAUCUACGAAUUCCUCAGGAUGAAACAAUUUGGAGAAGUUUAGAUCGGAAGAGCACACGU | 5.3 ± 0.7 nM
16 | target 2 MT 5'PFS CAG 3'PFS UGC (mixed) RNA 1: CACCCGUGCAAAAUUGCAGGGGUCUAAAACCUUCUCCAAAUUGUUUCAUCCU RNA 2: GGGAAUGGAUCCACAUCUACGAAUUCCAGAGGAUGAAACAAUUUGGAGAAGUGCAGAUCGGAAGAGCACACGU | 4.7 ± 1.2 nM
17 | target 2 MT 5'PFS CAG 3'PFS ACC (mixed) RNA 1: CACCCGUGCAAAAUUGCAGGGGUCUAAAACCUUCUCCAAAUUGUUUCAUCCU RNA 2: GGGAAUGGAUCCACAUCUACGAAUUCCAGAGGAUGAAACAAUUUGGAGAAGACCAGAUCGGAAGAGCACACGU | 5.5 ± 1.1 nM
18 | target 2 MT 5'PFS AUU 3'PFS UCC (mixed) RNA 1: CACCCGUGCAAAAUUGCAGGGGUCUAAAACCUUCUCCAAAUUGUUUCAUCCU RNA 2: GGGAAUGGAUCCACAUCUACGAAUUCAUUAGGAUGAAACAAUUUGGAGAAGUCCAGAUCGGAAGAGCACACGU | 16.7 ± 1.8 nM
19 | target 2 MT 5'PFS GAU 3'PFS UCC (mixed) RNA 1: CACCCGUGCAAAAUUGCAGGGGUCUAAAACCUUCUCCAAAUUGUUUCAUCCU RNA 2: GGGAAUGGAUCCACAUCUACGAAUUCGAUAGGAUGAAACAAUUUGGAGAAGUCCAGAUCGGAAGAGCACACGU | ~80 nM
20 | target 2 MT 5'PFS UAU 3'PFS GCC (mixed) RNA 1: CACCCGUGCAAAAUUGCAGGGGUCUAAAACCUUCUCCAAAUUGUUUCAUCCU RNA 2: GGGAAUGGAUCCACAUCUACGAAUUCUAUAGGAUGAAACAAUUUGGAGAAGGCCAGAUCGGAAGAGCACACGU | 43 ± 20 nM
21 | target 2 MT 5'PFS UAG 3'PFS CCA (mixed) RNA 1: CACCCGUGCAAAAUUGCAGGGGUCUAAAACCUUCUCCAAAUUGUUUCAUCCU RNA 2: GGGAAUGGAUCCACAUCUACGAAUUCUAGAGGAUGAAACAAUUUGGAGAAGCCAAGAUCGGAAGAGCACACGU | 5.1 ± 0.4 nM
22 | target 2 MT 5'PFS CAG 3'PFS UGA (mixed) RNA 1: CACCCGUGCAAAAUUGCAGGGGUCUAAAACCUUCUCCAAAUUGUUUCAUCCU RNA 2: GGGAAUGGAUCCACAUCUACGAAUUCCAGAGGAUGAAACAAUUUGGAGAAGUGAAGAUCGGAAGAGCACACGU | 6.8 ± 1.4 nM
23 | target 2 MT 5'PFS ACA 3'PFS AUA (mixed) RNA 1: CACCCGUGCAAAAUUGCAGGGGUCUAAAACCUUCUCCAAAUUGUUUCAUCCU RNA 2: GGGAAUGGAUCCACAUCUACGAAUUCACAAGGAUGAAACAAUUUGGAGAAGAUAAGAUCGGAAGAGCACACGU | 5.7 ± 1.1 nM
24 | target 2 MT 5'PFS CAC 3'PFS ACA (mixed) RNA 1: CACCCGUGCAAAAUUGCAGGGGUCUAAAACCUUCUCCAAAUUGUUUCAUCCU RNA 2: GGGAAUGGAUCCACAUCUACGAAUUCCACAGGAUGAAACAAUUUGGAGAAGACAAGAUCGGAAGAGCACACGU | 2.5 ± 0.6 nM
25 | target 2 MT 5'PFS AAG 3'PFS ACU (mixed) RNA 1: CACCCGUGCAAAAUUGCAGGGGUCUAAAACCUUCUCCAAAUUGUUUCAUCCU RNA 2: GGGAAUGGAUCCACAUCUACGAAUUCAAGAGGAUGAAACAAUUUGGAGAAGACUAGAUCGGAAGAGCACACGU | 9 ± 1.3 nM
26 | target 2 MT 5'PFS GAU 3'PFS UCA (mixed) RNA 1: CACCCGUGCAAAAUUGCAGGGGUCUAAAACCUUCUCCAAAUUGUUUCAUCCU RNA 2: GGGAAUGGAUCCACAUCUACGAAUUCGAUAGGAUGAAACAAUUUGGAGAAGUCAAGAUCGGAAGAGCACACGU | 21 ± 7 nM
27 | target 2 MT 5'PFS CAC 3'PFS ACG (mixed) RNA 1: CACCCGUGCAAAAUUGCAGGGGUCUAAAACCUUCUCCAAAUUGUUUCAUCCU RNA 2: GGGAAUGGAUCCACAUCUACGAAUUCCACAGGAUGAAACAAUUUGGAGAAGACGAGAUCGGAAGAGCACACGU | 2.8 ± 0.8 nM
28 | target 2 MT 5'PFS GAU 3'PFS UCG (mixed) RNA 1: CACCCGUGCAAAAUUGCAGGGGUCUAAAACCUUCUCCAAAUUGUUUCAUCCU RNA 2: GGGAAUGGAUCCACAUCUACGAAUUCGAUAGGAUGAAACAAUUUGGAGAAGUCGAGAUCGGAAGAGCACACGU | 15.2 ± 1.5 nM
